The chains are these.
B1: TPR t1 (parent)
chain: GACCAAUCUGCCCUCAGAGCUCGAGAACAUCUUCGGAUGCAGAGGAGGCAGGCUUCGGUGGCGCGAUAGCGCCAACGUCCUCAACCUCCAAUGCAUCCCACCACAUGAUGAUGCCUGAAGAGCCUUGGUUUUUUG

Variants of B1 are the subject of the data set. Description: polymerase ribozyme fitness, log enrichment relative to wild type (log ratio); higher = more active; in vitro selection for triplet polymerase activity. In short, it runs like this:
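Each subunit of a heterodimeric triplet polymerase ribozyme was mutagenized into a library by PCR, transcribed, and subjected to one round of in vitro selection, run in triplicate. Libraries were annealed with a biotinylated primer, the partner subunit and triplets, incubated frozen at −7 °C, and extended constructs were gel-excised, captured on streptavidin beads and recovered by RT-PCR. Input and output libraries were sequenced on Illumina, keeping genotypes with ≥10 input reads and ≥1 read per output. Fitness is log base 2 of genotype enrichment divided by wild-type enrichment, from inverse-variance-weighted replicate averages.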
For C70A A121C, the “polymerase ribozyme fitness (log ratio)” value worked out at 0.356.

Take C72U C123A U126G: the “polymerase ribozyme fitness (log ratio)” value is -1.44.

Regarding U30A G39U C101A A111U A119G C123G, the “polymerase ribozyme fitness (log ratio)” value was -6.64.

Turning to C49U U106A C114U, the “polymerase ribozyme fitness (log ratio)” value was -4.43.

As for C56U C73G G122A U130A, the “polymerase ribozyme fitness (log ratio)” value is -2.91.

For the variant U9A C31U G44U G52U A111U, the “polymerase ribozyme fitness (log ratio)” value was -5.37.

Turning to C56U G110U A121U, the “polymerase ribozyme fitness (log ratio)” value is -1.11.

With G58U A68G, the “polymerase ribozyme fitness (log ratio)” value is -3.5.

Take C79U A111U: the “polymerase ribozyme fitness (log ratio)” value was -3.01.

Take A46U C72G: the “polymerase ribozyme fitness (log ratio)” value is -1.4.

Take U9G C70A: the “polymerase ribozyme fitness (log ratio)” value was -1.08.

As for C72U G113A, the “polymerase ribozyme fitness (log ratio)” value is -1.48.

As for G42A G47A U112A, the “polymerase ribozyme fitness (log ratio)” value was -1.49.

For the variant U14G U38G, the “polymerase ribozyme fitness (log ratio)” value is -3.56.

For the variant C11A C12U U38A U78C U96A, the “polymerase ribozyme fitness (log ratio)” value was -2.53.

On to G45U A50U G117U, for which the “polymerase ribozyme fitness (log ratio)” value was -4.81.

On to C8A C79A, for which the “polymerase ribozyme fitness (log ratio)” value was -0.182.

Regarding C34A C56A C104U, the “polymerase ribozyme fitness (log ratio)” value was -2.11.

With G60A U78C, the “polymerase ribozyme fitness (log ratio)” value was -0.393.

With G58C U59G A95U G122A, the “polymerase ribozyme fitness (log ratio)” value was -0.6.

As to U87A C89G, the “polymerase ribozyme fitness (log ratio)” value was -2.18.

In the case of C13U G52C C62U C94G A100U G113A, the “polymerase ribozyme fitness (log ratio)” value was -3.

Take G51A G128A: the “polymerase ribozyme fitness (log ratio)” value is -5.75.

With G36U G42U C56G C70U U112C C124U, the “polymerase ribozyme fitness (log ratio)” value was -2.29.

C28G A41C: the “polymerase ribozyme fitness (log ratio)” value is -4.58.

As to G36C G65U C72U G107A G117C G128A U133A, the “polymerase ribozyme fitness (log ratio)” value is -7.08.

For the variant A50U G57U G135A, the “polymerase ribozyme fitness (log ratio)” value is -2.6.

Turning to C12G C70G, the “polymerase ribozyme fitness (log ratio)” value was -2.83.

A6U C53A G63U A100U: the “polymerase ribozyme fitness (log ratio)” value is -3.98.

As to G48U G57U G63A U96G A100C C102G G120C, the “polymerase ribozyme fitness (log ratio)” value was -6.73.

As to A2U C13A, the “polymerase ribozyme fitness (log ratio)” value was -3.76.

Regarding A6G C85U G113A, the “polymerase ribozyme fitness (log ratio)” value was -2.51.

C12A U130C: the “polymerase ribozyme fitness (log ratio)” value was -1.06.

For G36U G39U C70U A111G, the “polymerase ribozyme fitness (log ratio)” value is -4.55.

As to C89G U106A G120C G122C, the “polymerase ribozyme fitness (log ratio)” value is -1.85.

On to C15A G35C U87A, for which the “polymerase ribozyme fitness (log ratio)” value is -5.96.

As to A41C G113C C124U, the “polymerase ribozyme fitness (log ratio)” value is -3.22.

Turning to U32G A68U C80A C101U A111U U126G, the “polymerase ribozyme fitness (log ratio)” value was -6.67.

Turning to G71A C89U U126C, the “polymerase ribozyme fitness (log ratio)” value was -1.9.

Consider C22A A91G, for which the “polymerase ribozyme fitness (log ratio)” value is -4.94.

As for A43C C49A C94A C115A, the “polymerase ribozyme fitness (log ratio)” value was -4.43.

With U81C C85U A118G G122U C124U U129A, the “polymerase ribozyme fitness (log ratio)” value was -3.58.

G10C U112G: the “polymerase ribozyme fitness (log ratio)” value was determined as 0.149.

Consider C53U U129A, for which the “polymerase ribozyme fitness (log ratio)” value was -1.24.

For G42U C88U C101G, the “polymerase ribozyme fitness (log ratio)” value was -3.94.

Consider G71C U96C G127A, for which the “polymerase ribozyme fitness (log ratio)” value is -3.25.

Regarding C34U U78A, the “polymerase ribozyme fitness (log ratio)” value was -4.78.

In the case of U9A U33G G36U U38G C53G C115G, the “polymerase ribozyme fitness (log ratio)” value is -7.69.

In the case of C56U G69U C79A C101U, the “polymerase ribozyme fitness (log ratio)” value is -3.71.

G39A G69C: the “polymerase ribozyme fitness (log ratio)” value was -0.611.

As to U9G G35U C40A G93C C114U, the “polymerase ribozyme fitness (log ratio)” value was -5.91.

C82A G117U: the “polymerase ribozyme fitness (log ratio)” value is -0.792.

For the variant G113U C115A, the “polymerase ribozyme fitness (log ratio)” value was -4.42.

As to C12U C20G A43C G48A, the “polymerase ribozyme fitness (log ratio)” value is -5.39.

With C8G A50U U54C U106A G117A, the “polymerase ribozyme fitness (log ratio)” value is -0.842.

Turning to G93A A95U C102A, the “polymerase ribozyme fitness (log ratio)” value was -4.21.

Take G71A G110C: the “polymerase ribozyme fitness (log ratio)” value is -4.27.

Regarding U9A C11A G42U C64U, the “polymerase ribozyme fitness (log ratio)” value is -1.3.

Consider A43U G60C C76G U78A G113C U125A, for which the “polymerase ribozyme fitness (log ratio)” value is -4.6.

Regarding C3U C80G, the “polymerase ribozyme fitness (log ratio)” value was -5.98.

For C99U G110C, the “polymerase ribozyme fitness (log ratio)” value was -6.69.

With G57C C97U G113C, the “polymerase ribozyme fitness (log ratio)” value was -3.16.

For A83U G128C, the “polymerase ribozyme fitness (log ratio)” value is -2.32.

On to U21A G42A A46U G60A G120A, for which the “polymerase ribozyme fitness (log ratio)” value was -2.58.

As to G44U G58C, the “polymerase ribozyme fitness (log ratio)” value is -0.197.

For C12G G69C C72U A90U U116G, the “polymerase ribozyme fitness (log ratio)” value was -6.29.

With G48U C53G G69U, the “polymerase ribozyme fitness (log ratio)” value is -0.128.

For the variant G36C C76G, the “polymerase ribozyme fitness (log ratio)” value was -1.25.

With G71A A84U U112A U131A, the “polymerase ribozyme fitness (log ratio)” value is -0.0045.

In the case of A27C G120A, the “polymerase ribozyme fitness (log ratio)” value was -3.

For the variant C3U C11A G120C, the “polymerase ribozyme fitness (log ratio)” value was determined as 0.399.

Regarding G63U C70G A118G U125A, the “polymerase ribozyme fitness (log ratio)” value was -1.35.

With G47A G58A C62U C101U A108G, the “polymerase ribozyme fitness (log ratio)” value was -2.41.

As to G63U A121C, the “polymerase ribozyme fitness (log ratio)” value was determined as 0.0306.

In the case of C49U C124G, the “polymerase ribozyme fitness (log ratio)” value is 0.761.

In the case of A16C G117U A121C, the “polymerase ribozyme fitness (log ratio)” value is -4.48.

As for A5C C94U G110A, the “polymerase ribozyme fitness (log ratio)” value is -2.08.

As to U78A G93A C97A A121C, the “polymerase ribozyme fitness (log ratio)” value was -5.11.

On to C70U C72A A103U A108G G110A, for which the “polymerase ribozyme fitness (log ratio)” value is -6.1.

On to C13U G17A C123A, for which the “polymerase ribozyme fitness (log ratio)” value worked out at 0.664.

For A46U A74U G113A, the “polymerase ribozyme fitness (log ratio)” value was -1.99.

As for G61A C85G G93A C101G, the “polymerase ribozyme fitness (log ratio)” value was -2.53.

On to C94G C114U G128C, for which the “polymerase ribozyme fitness (log ratio)” value is -3.47.

The record behind these values is the RNAGym collection of RNA variant scans (doi:10.1073/pnas.2313332121).
